# Laboratory results as given in patent publication US20250152743A1, “SYNPOPTOSIS CIRCUITS FOR PROGRAMMABLE CELL DEATH CONTROL” (California Institute of Technology, priority 2023, published 2025).
# B1: Caspase3_v2.2: nCasp3-tevs-nHalo-tevs-cHalo-tevs-cCasp3-CAAX; SEQ ID NO: 45 (protein)
# chain: MENTENSVDSKSIKNLEPKIIHGSESMDSGISLDNSYKMDYPEMGLCIIINNKNFHKSTGMTSRSGTDVDAANLRETFRNLKYEVRNKNDLTREEIVELMRDVSKEDHSKRSSFVCVLLSHGEEGIIFGTNGPVDLKKITNFFRGDRCRSLTGKPKLFIIQACRGTELDCGIETENLYFQSEIGTGFPFDPHYVEVLGERMHYVDVGPRDGTPVLFLHGNPTSSYVWRNIIPHVAPENLYFQSTHRCIAPDLIGMGKSDKPDLGYFFDDHVRFMDAFIEALGLEEVVLVIHDWGSALGFHWAKRNPERVKGIAFMEFIRPIPTWDEWPEFARETFQAFRTTDVGRKLIIDQNVFIEGTLPMGVVRPLTEVEMDHYREPFLNPVDREPLWRFPNELPIAGEPANIVALVEEYMDWLHQSPVPKLLFWGTPGVLIPPAEAARLAKSLPNCKAVDIGPGLNLLQEDNPDLIGSEIARWLSTLEISENLYFQSGVDDDMACHKIPVEADFLYAYSTAPGYYSWRNSKDGSWFIQSLCAMLKQYADKLEFMHILTRVNRKVATEFESFSFDATFHAKKQIPCIVSMLTKELYFYHSTGGSSGGGGRSKLNPPDESGPGCMSCKCVLS
# B2: caspase-3 variant designed to activate in the presence of Input 1 and the absence of Input 2: TEVP-removable degron on small subunit, TVMVP-activatable N-degron on large subunit (SEQ ID NOs: 25, 26) (protein)
# chain 1: MGSETVRFQYHKSGAWKLPVSLVKEQLEKKLQALEKKLAQLEWKNQALEKKLAQENTENSVDSKSIKNLEPKIIHGSESMDSGISLDNSYKMDYPEMGLCIIINNKNFHKSTGMTSRSGTDVDAANLRETFRNLKYEVRNKNDLTREEIVELMRDVSKEDHSKRSSFVCVLLSHGEEGIIFGTNGPVDLKKITNFFRGDRCRSLTGKPKLFIIQACRGTELDCGIETD
# chain 2: MGSSGVDDDMACHKIPVEADFLYAYSTAPGYYSWRNSKDGSWFIQSLCAMLKQYADKLEFMHILTRVNRKVATEFESFSFDATFHAKKQIPCIVSMLTKELYFYHGGSGALKKELQANKKELAQLKWELQALKKELAQGGSGLENLYFQSGSGSISLIAALAVDYVIGMENAMPWNLPADLAWFKRNTLNKPVIMGRHTWESIGRPLPGRKNIILSSQPSTDDRVTWVKSVDEAIAACGDVPEIMVIGGGRVIEQFLPKAQKLYLTHIDAEVEGDTHFPDYEPDDWESVFSEFHDADAQNSHSYCFEILERR
# B3: AND-gated caspase-3: TEVP-activatable caspase-3 fused to a TVMVP-removable degron; SEQ ID NO: 23 (protein)
# chain: MGSENTENSVDSKSIKNLEPKIIHGSESMDSGISLDNSYKMDYPEMGLCIIINNKNFHKSTGMTSRSGTDVDAANLRETFRNLKYEVRNKNDLTREEIVELMRDVSKEDHSKRSSFVCVLLSHGEEGIIFGTNGPVDLKKITNFFRGDRCRSLTGKPKLFIIQACRGTELDCGIETENLYFQSGVDDDMACHKIPVEADFLYAYSTAPGYYSWRNSKDGSWFIQSLCAMLKQYADKLEFMHILTRVNRKVATEFESFSFDATFHAKKQIPCIVSMLTKELYFYHGGSGLETVRFQSGSGSISLIAALAVDYVIGMENAMPWNLPADLAWFKRNTLNKPVIMGRHTWESIGRPLPGRKNIILSSQPSTDDRVTWVKSVDEAIAACGDVPEIMVIGGGRVIEQFLPKAQKLYLTHIDAEVEGDTHFPDYEPDDWESVFSEFHDADAQNSHSYCFEILERR
# B4: Caspase3_v2.1: nHalo-tevs-Casp3te-tevs-cHalo-CAAX; SEQ ID NO: 44 (protein)
# chain: MEIGTGFPFDPHYVEVLGERMHYVDVGPRDGTPVLFLHGNPTSSYVWRNIIPHVAPGSENLYFQSGSENTENSVDSKSIKNLEPKIIHGSESMDSGISLDNSYKMDYPEMGLCIIINNKNFHKSTGMTSRSGTDVDAANLRETFRNLKYEVRNKNDLTREEIVELMRDVSKEDHSKRSSFVCVLLSHGEEGIIFGTNGPVDLKKITNFFRGDRCRSLTGKPKLFIIQACRGTELDCGIETENLYFQSGVDDDMACHKIPVEADFLYAYSTAPGYYSWRNSKDGSWFIQSLCAMLKQYADKLEFMHILTRVNRKVATEFESFSFDATFHAKKQIPCIVSMLTKELYFYHSTGSENLYFQSGSTHRCIAPDLIGMGKSDKPDLGYFFDDHVRFMDAFIEALGLEEVVLVIHDWGSALGFHWAKRNPERVKGIAFMEFIRPIPTWDEWPEFARETFQAFRTTDVGRKLIIDQNVFIEGTLPMGVVRPLTEVEMDHYREPFLNPVDREPLWRFPNELPIAGEPANIVALVEEYMDWLHQSPVPKLLFWGTPGVLIPPAEAARLAKSLPNCKAVDIGPGLNLLQEDNPDLIGSEIARWLSTLEISGGSSGGGGRSKLNPPDESGPGCMSCKCVLS
# B5: OR-gated caspase-3: tandem TEVP and TVMVP cleavage sites at the inter-subunit linker of caspase-3; SEQ ID NO: 24 (protein)
# chain: MGSENTENSVDSKSIKNLEPKIIHGSESMDSGISLDNSYKMDYPEMGLCIIINNKNFHKSTGMTSRSGTDVDAANLRETFRNLKYEVRNKNDLTREEIVELMRDVSKEDHSKRSSFVCVLLSHGEEGIIFGTNGPVDLKKITNFFRGDRCRSLTGKPKLFIIQACRGTELDCGIETENLYFQSETVRFQSGVDDDMACHKIPVEADFLYAYSTAPGYYSWRNSKDGSWFIQSLCAMLKQYADKLEFMHILTRVNRKVATEFESFSFDATFHAKKQIPCIVSMLTKELYFYH
# Tests used:
# [1] = Engineered Casp3 variants without input protease and with Ras sensor protease; details: without an input protease
# Description: In this experiment, we tested the wild-type TEVP activatable Casp3 protein against the engineered Casp3 variants (v2.1 and v2.2) as described above. Each Casp3 variant was tested without an input protease and with a Ras sensor protease.
# [2] = system: co-culture of engineered HEK cells that stably express Input 1, Input 2, or both, and wildtype cells; test: Synpoptosis gates in co-culture of four input-state cell lines, Annexin flow cytometry; assay type: cell-based, human; details: Input 1 TEVP (Cherry), Input 2 TVMVP (Citrine)
# Description: As a proof of concept for combinatorial targeting, the synpoptosis gates were tested in a co-culture of engineered HEK cells that stably express Input 1, Input 2, or both, and wildtype cells that express neither. Input 1 with Cherry and Input 2 with Citrine were co-expressed, such that the two fluorescent protein profiles represented input patterns (FIG. 4C, Quadrant layout). The co-culture of the four cell lines were then transfected with the synthetic apoptosis gates to analyze their killing specificity. Transfections of no caspase-3 (FIG. 4C, Mock) and active caspase-3 (FIG. 4C, Indiscriminate) were used to establish background and ceiling apoptosis levels, respectively. […] Similar killing specificities were observed when the synthetic pyroptosis gates were transfected into the co-culture (FIG. 4D).
# For experiments that required stable transgene expression, stable cell lines were engineered using lentiviruses followed by antibiotic selection, or using the PiggyBac transposase system. […] The next day, the cells were co-transfected using Lipofectamine 2000 with three plasmids, pLVX-M-PURO (Addgene plasmid #125839) containing the gene of interest, the TEVP-activatable Citrine reporter for instance, psPAX2 (Addgene plasmid #12260), and pCMV-VSV-G (Addgene plasmid #8454). We kept the mass ratio of the three plasmids at 9:9:2 (450 ng:450 ng:100 ng). In some experiments involving cells stably expressing two or more transgenes, the lentiviruses were generated using multiple pLVX-M-PURO plasmids carrying different genes of interest. An alternative ratio of pLVX-M-PURO:psPAX2:pCMV-VSV-G was 2:2:1 (2.4 μg:2.4 μg:1.2 μg), which was used to generate lentiviruses for stable integration of IL-1β and IL-18 genes. […] The RasGC line, or HEK293 cells stably expressing human H-Ras G12V mutant along with a Cerulean fluorescence marker, was generated using the PiggyBac method. […] One week later, the cells were sorted based on Cerulean fluorescence to obtain the final RasGC line. […]
Molecule,background (TEVP-independent) cell death / Casp3 activation [1],background (TEVP-independent) cell death / Casp3 activation ([1]; listed as v2.2),"killing specificity, Annexin staining [2]",background (TEVP-independent) cell death / Casp3 activation ([1]; listed as v2.1)
B1,background Casp3 activation is reduced,reduced to statistically non-significant amounts,,
B2,,,restricted apoptosis to the corresponding cells,
B3,,,triggered apoptosis predominantly in double-positive cells,
B4,making TEVP-independent Casp3 activation less likely,,,reduced to statistically non-significant amounts
B5,,,"caused apoptosis in single-positive and double-positive cells, sparing only double-negative cells",
